{"source": "paper PMC8259415", "key": {"Abl2 SH2 domain": {"biological_target": "Abl2 SH2 domain (UniProt Q4JIM5)", "sequence (Q4JIM5 173-263)": "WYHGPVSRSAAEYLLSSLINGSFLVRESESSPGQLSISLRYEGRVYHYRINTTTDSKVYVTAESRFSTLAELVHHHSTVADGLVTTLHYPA", "assay": "SH2-coupled bead pull-down from lysate, blot", "conditions": "reference: wild type"}, "[1]": {"biological_target": "Abl2 Src homology 2 (SH2) domain (UniProt Q4JIM5)", "assay": "pull-down; Abl2 SH2 covalently linked to AminoLink beads, 1 μM; 0 to 2 μM PDGFRβ CD; 1 h at 4 °C; 50 mM Hepes pH 7.25, 150 mM NaCl, 5% glycerol, 1 mM DTT; SDS-PAGE, Coomassie densitometry, one-site specific binding fit"}}}
{"substance": "PDGFRβ (from UniProt P09619) Y751F", "values": [{"measurement": "other: percent reduction relative to WT", "setting": "Abl2 SH2 domain; sites Y751", "value": 10, "unit": "%"}]}
{"substance": "PDGFRβ (from UniProt P09619) Y771F", "values": [{"measurement": "other: percent reduction relative to WT", "setting": "Abl2 SH2 domain; sites Y771", "value": 90, "unit": "%"}]}
{"substance": "autophosphorylated PDGFRβ cytoplasmic domain (CD) (from UniProt P09619 554-1106) (domain or fragment)", "values": [{"measurement": "Kd", "setting": "[1]", "value": 260, "unit": "nM"}]}
